This series concerns the molecule itself. Description: cross-linking; formaldehyde 0.05% to 1% (vol/vol) on 1 mg/mL protein, 20 min at room temperature; read by denaturing mass photometry.

The text below walks through data of PMC11045720, “Denaturing mass photometry for rapid optimization of chemical protein-protein cross-linking reactions” (Nature Communications, 2024).

B1: L-Glutamate dehydrogenase from bovine liver (enzyme)
chain: not shown
notes: L-Glutamate dehydrogenase from bovine liver (Sigma); also called GLDH; source: bought: Sigma (from bovine liver)
The stoichiometry N is the number of molecules, sites or subunits per partner or assembly. In the case of B1, the “stoichiometry N” value was determined as 6.
